# Numbering of substitutions follows the chain as printed. Names may count otherwise.
# T1: EpCAM (UniProt P16422 24-265)
# T1 construct: also called biotinylated EpCAM
# T1 sequence (looked up): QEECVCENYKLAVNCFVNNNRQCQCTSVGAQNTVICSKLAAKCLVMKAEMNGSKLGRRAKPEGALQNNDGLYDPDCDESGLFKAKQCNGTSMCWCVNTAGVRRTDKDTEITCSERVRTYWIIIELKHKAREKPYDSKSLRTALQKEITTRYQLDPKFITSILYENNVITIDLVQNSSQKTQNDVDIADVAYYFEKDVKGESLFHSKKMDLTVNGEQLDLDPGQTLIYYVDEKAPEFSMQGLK
# B1: AC_05293 (bispecific antibody)
# heavy: not shown
# light: DIQMTQSPSSLSASVGDRVTITCRASQSISSYLNWYQEKPGKAPKLLIYAASSLQSGVPSRFSGSGSGTDFTLTISSLQPEDFATYYCQQYGRNPPTFGQGTKLEIKRTVAAPSVFIFPPSDEQLKSGTASVVCYLNNFYPREAKVQWKVDNALQSGNSQESVTEQDSKDSTYSLWSTLTLSKADYEKHKVYACEVTHQGLSSPVTKSFNRGEC
# chain: EVQLLEQSGAELVRPGTSVKISCKASGYAFTNYWLGWVKERPGHGLEWIGDIFPGSGNIHYNEKFKGKATLTADKSSSTAYMQLSSLTFEDSAVYFCARLRNWDEPMDYWGQGTTVTVSSASTKGPSVFPLAPSSKSTSGGTAALGCLVKDYFPEPVTVSWNSGALTSGVHTFPAVLQSSGLYSLSSVVEVPSSSLGTQTYICNVNHKPSNTKVDKKVEPKSC
# notes: Chain H1 (role heavy) = IgG heavy chain-linker-Fab light chain; chain L1 (role light) = IgG light chain; chain H2 (role chain) = Fab heavy chain VH-CH1; also called wt bsAb (AC_05293); wild-type bsAb
# B2: AM_4117-4126 (bispecific antibody)
# heavy 1: not shown
# light: B1 light
# heavy 2: B1 chain with Y183I
# notes: AC_05293 backbone; also called double mutant T109P + Y180I; copies: 2 + 2 + 2
# B3: AM_4117-4134 (bispecific antibody)
# heavy 1: not shown
# light: B1 light
# heavy 2: B1 chain with V191G
# notes: AC_05293 backbone; also called double mutant T109P + V188G; copies: 2 + 2 + 2
# B4: AM_4115-4133 (bispecific antibody)
# heavy 1: not shown
# light: B1 light
# heavy 2: B1 chain with S186T
# notes: AC_05293 backbone; also called double mutant I126S + S183T; copies: 2 + 2 + 2
# B5: AM_4109-4126 (bispecific antibody)
# heavy 1: not shown
# light: B1 light
# heavy 2: B1 chain with Y183I
# notes: AC_05293 backbone; also called double mutant I126A + Y180I; copies: 2 + 2 + 2
# B6: AM_4109-4133 (bispecific antibody)
# heavy 1: not shown
# light: B1 light
# heavy 2: B1 chain with S186T
# notes: AC_05293 backbone; also called double mutant I126A + S183T; copies: 2 + 2 + 2
# B7: AM_4109-4131 (bispecific antibody)
# heavy 1: not shown
# light: B1 light
# heavy 2: B1 chain with Y183W
# notes: AC_05293 backbone; also called double mutant I126A + Y180W; copies: 2 + 2 + 2
# B8: AM_4115-4134 (bispecific antibody)
# heavy 1: not shown
# light: B1 light
# heavy 2: B1 chain with V191G
# notes: AC_05293 backbone; also called double mutant I126S + V188G; copies: 2 + 2 + 2
# B9: AM_4120-4133 (bispecific antibody)
# heavy 1: not shown
# light: B1 light
# heavy 2: B1 chain with S186T
# notes: AC_05293 backbone; also called double mutant A111V + S183T; copies: 2 + 2 + 2
# B10: AM_4110-4133 (bispecific antibody)
# heavy 1: not shown
# light: B1 light
# heavy 2: B1 chain with S186T
# notes: AC_05293 backbone; also called double mutant I126G + S183T; copies: 2 + 2 + 2
# B11: AM_4110-4126 (bispecific antibody)
# heavy 1: not shown
# light: B1 light
# heavy 2: B1 chain with Y183I
# notes: AC_05293 backbone; also called double mutant I126G + Y180I; copies: 2 + 2 + 2
# B12: AM_4110-4131 (bispecific antibody)
# heavy 1: not shown
# light: B1 light
# heavy 2: B1 chain with Y183W
# notes: AC_05293 backbone; also called double mutant I126G + Y180W; copies: 2 + 2 + 2
# B13: AM_4120-4131 (bispecific antibody)
# heavy 1: not shown
# light: B1 light
# heavy 2: B1 chain with Y183W
# notes: AC_05293 backbone; also called double mutant A111V + Y180W; copies: 2 + 2 + 2
# B14: AM_4117-4131 (bispecific antibody)
# heavy 1: not shown
# light: B1 light
# heavy 2: B1 chain with Y183W
# notes: AC_05293 backbone; also called double mutant T109P + Y180W; copies: 2 + 2 + 2
# B15: AM_4110-4134 (bispecific antibody)
# heavy 1: not shown
# light: B1 light
# heavy 2: B1 chain with V191G
# notes: AC_05293 backbone; also called double mutant I126G + V188G; copies: 2 + 2 + 2
# B16: AM_4120-4134 (bispecific antibody)
# heavy 1: not shown
# light: B1 light
# heavy 2: B1 chain with V191G
# notes: AC_05293 backbone; also called double mutant A111V + V188G; copies: 2 + 2 + 2
# B17: AM_4109-4134 (bispecific antibody)
# heavy 1: not shown
# light: B1 light
# heavy 2: B1 chain with V191G
# notes: AC_05293 backbone; also called double mutant I126A + V188G; copies: 2 + 2 + 2
# B18: AM_4117-4133 (bispecific antibody)
# heavy 1: not shown
# light: B1 light
# heavy 2: B1 chain with S186T
# notes: AC_05293 backbone; also called double mutant T109P + S183T; copies: 2 + 2 + 2
# B19: AM_4120-4126 (bispecific antibody)
# heavy 1: not shown
# light: B1 light
# heavy 2: B1 chain with Y183I
# notes: AC_05293 backbone; also called double mutant A111V + Y180I; copies: 2 + 2 + 2
# B20: 4109 (bispecific antibody)
# heavy 1: not shown
# heavy 2: B1 chain
# light: B1 light
# notes: CD40 x EpCAM; also called single mutant I126A of AC_05293; copies: 2 + 2 + 2
# B21: 4110 (bispecific antibody)
# heavy 1: not shown
# heavy 2: B1 chain
# light: B1 light
# notes: also called single mutant I126G of AC_05293; copies: 2 + 2 + 2
# Target: T2, CD40 (UniProt P25942 21-193)
# T2 construct: also called biotinylated CD40; CD40 antigen
# T2 sequence (P25942 21-193 limits assumed): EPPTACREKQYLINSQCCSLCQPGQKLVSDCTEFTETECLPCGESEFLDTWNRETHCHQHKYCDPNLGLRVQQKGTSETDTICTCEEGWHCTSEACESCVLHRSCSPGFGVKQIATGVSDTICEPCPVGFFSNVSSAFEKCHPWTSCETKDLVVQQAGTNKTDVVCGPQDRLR
# Assay: Octet BLI; biotinylated CD40 on streptavidin sensor;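 also: octet RED96 biolayer interferometry, 300 s association then 300 s dissociation in kinetic buffer, buffer-blank referenced, fitted with a 1:1 Langmuir binding model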
# Description: (§1) Kinetic measurements were performed using the Octet RED96 platform (ForteBIo). […] Association was followed for 300 seconds followed by dissociation in 1x Kinetic buffer for 300 seconds. Sensor tips were regenerated using 10 mM glycine, pH 1.7. Data generated were referenced by subtracting a parallel buffer blank, the baseline was aligned with the γ-axis, inter-step correlation by alignment against dissociation was performed and the data were smoothed by a Savitzky-Golay filter in the data analysis software (v.9.0.0.14). The processed data were fitted using a 1:1 Langmuir binding model with X2 as a measurement of fitting accuracy.
# (§2) Binding affinities of all the variants were determined using Octet (Pall ForteBio).
Binder,Kd [nM],koff [s⁻¹],kon [M⁻¹ s⁻¹]
B1,0.93,0.001,1.1e+06
B2,1.2,0.00048,400000
B3,0.97,0.00072,740000
B4,1,0.0011,1.1e+06
B5,1.2,0.0006,480000
B6,0.73,0.001,1.4e+06
B7,0.89,0.00072,800000
B8,1.1,0.001,930000
B9,0.9,0.0011,1.2e+06
B10,1.1,0.00075,680000
B11,1.5,0.00051,350000
B12,1.2,0.00056,450000
B13,1.1,0.00097,920000
B14,1,0.00066,630000
B15,0.88,0.00075,860000
B16,0.91,0.0011,1.2e+06
B17,0.83,0.00092,1.1e+06
B18,0.93,0.0007,750000
B19,0.86,0.001,1.2e+06

# Target: T2, CD40
# Assay: dual ELISA: CD40 coated, bsAb titrated, biotinylated EpCAM + streptavidin-HRP; signal needs both targets
# Description: (§3) Dual ELISA Plates were coated with 0.5 μg/mL CD40 in PBS over night at 4° C. After washing in PBS/0.05% Tween 20 (PBST), the plates were blocked with PBS/2% BSA for at least 30 minutes at room temperature before being washed again. Samples serially diluted in PBS/0.5% BSA were then added and allowed to bind for at least 1 hour at room temperature. […] Dual complexed bsAb with CD40 and EpCAM were detected with HRP-labelled streptavidin. SuperSignal Pico Luminescent was used as substrate and luminescence signals were measured using Fluostar Optima.
row,Binder,EC50 (read off the curve) [µg/mL]
1,B1,~0.1
2,B20,~0.1
3,B21,~0.1

# Target: T1, EpCAM
# Assay: Octet BLI; biotinylated EpCAM on streptavidin sensor;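 also: octet RED96 kinetics: 300 s association, then 300 s dissociation in 1x Kinetic buffer, buffer-blank referenced, Savitzky-Golay smoothed, fitted to a 1:1 Langmuir binding model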
# Description: as §1, §2
Binder,Kd [nM],koff [s⁻¹],kon [M⁻¹ s⁻¹]
B1,4.8,0.0012,230000
B2,4.6,0.001,220000
B3,5.2,0.0012,230000
B4,7,0.0013,180000
B5,4.3,0.00077,180000
B6,4.6,0.00092,200000
B7,4.4,0.00081,180000
B8,6.9,0.0013,190000
B9,5.7,0.0014,240000
B10,4.9,0.00096,190000
B11,5.1,0.0009,170000
B12,4.7,0.00095,200000
B13,5.3,0.0015,280000
B14,4.5,0.0012,260000
B15,5.3,0.0011,200000
B16,5.8,0.0014,250000
B17,4.7,0.00098,210000
B18,4.6,0.0012,260000
B19,5.6,0.0013,230000

# Target: T2, CD40
# Assay: dual ELISA: CD40 coated, bsAb titrated, biotinylated EpCAM + streptavidin-HRP; signal needs both targets
# Remark: another data set of the same source
# Description: as §3
row,Binder,EC50 (read off the curve) [nM]
1,B1,~0.9
2,B5,~0.9
3,B6,~0.9
4,B7,~0.9
5,B17,~0.9

# From patent US20260001961A1 (ALLIGATOR BIOSCIENCE, published 2026)
